Measured values taken from publication PMC7939390 (The Journal of Biological Chemistry, 2020).

What was measured:
FtsBLQ = details: cited from earlier work
Source text: In contrast, no significant change in the FA sig ...

PBP1b [1] = molecular target: T1, PBP1b (Escherichia coli, UniProt P02919); details: peptide versus full-length FtsN protein; 10 μM dansyl-lipid II, 30 nM PBP1bγ, pH 7.5, 30 °C
T1 sequence (P02919 1-799 isoform P02919-2): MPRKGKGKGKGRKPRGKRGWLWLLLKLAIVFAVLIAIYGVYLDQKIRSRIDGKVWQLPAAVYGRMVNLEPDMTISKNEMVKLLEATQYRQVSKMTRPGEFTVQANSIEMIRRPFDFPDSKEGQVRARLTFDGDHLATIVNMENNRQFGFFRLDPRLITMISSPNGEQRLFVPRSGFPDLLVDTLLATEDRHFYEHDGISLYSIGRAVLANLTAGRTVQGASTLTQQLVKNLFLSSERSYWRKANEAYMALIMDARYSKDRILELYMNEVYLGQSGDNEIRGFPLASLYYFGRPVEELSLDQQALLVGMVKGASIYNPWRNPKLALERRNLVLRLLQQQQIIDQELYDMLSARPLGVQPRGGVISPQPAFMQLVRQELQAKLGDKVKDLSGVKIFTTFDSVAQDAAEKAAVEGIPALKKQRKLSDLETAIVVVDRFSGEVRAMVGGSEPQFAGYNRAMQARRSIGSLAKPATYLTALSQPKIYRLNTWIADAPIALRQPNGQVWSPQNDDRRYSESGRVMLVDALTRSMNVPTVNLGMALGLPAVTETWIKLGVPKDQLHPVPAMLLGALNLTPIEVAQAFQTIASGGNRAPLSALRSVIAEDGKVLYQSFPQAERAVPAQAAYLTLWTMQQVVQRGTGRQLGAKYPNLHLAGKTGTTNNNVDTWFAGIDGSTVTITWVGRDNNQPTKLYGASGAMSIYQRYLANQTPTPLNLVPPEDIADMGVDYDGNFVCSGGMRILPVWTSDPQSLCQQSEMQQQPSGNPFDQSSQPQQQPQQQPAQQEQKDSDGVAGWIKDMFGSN
Method: (§3) The GTase activity assays with dansyl-lipid II as substrate were performed in a medium binding black 96-well microplate (Greiner Bio One) as described ([57]). The samples contained 10 μM dansyl-lipid II, 50 mM HEPES-NaOH, pH 7.5, 200 mM NaCl, 10 mM CaCl2, 0.085% of decyl-PEG, 20% of DMSO, and 1 unit of N-acetylmuramidase of Streptomyces globisporus (Sigma). […] The reactions were initiated by the addition of 30 nM PBP1bγ (100 nM for PBP1a) and monitored by following the fluorescence decrease over 20 min at 30 °C using an Infinite 200 PRO microplate reader (Tecan, Männedorf, Switzerland) with excitation wavelength at 340 nm and emission at 520 nm.

TPase domain of PBP1b = details: 2.0 mM S2d, 1.2 μM PBP1b, FtsN 2 μM, 50 mM phosphate pH 7.0, 37 °C, 3.2 mM 4,4′-dithiodipyridine, absorbance 330 nm; representative of three independent experiments
Method: The activity of the TPase domain of PBP1b was measured in the presence of S2d (analog of the peptide moiety) as a mimic of donor substrates as previously described ([58], [59]). The assay was performed in a UV-Star 96-well microplate (Greiner Bio One) at 37 °C in the presence of 50 mM phosphate buffer, pH 7.0, 2.0 mM S2d, 3.2 mM 4,4′-dithiodipyridine, and 1.2 μM PBP1b. The absorbance at 330 nm was monitored with an Infinite M200 Pro microplate reader (Tecan, Männedorf, Switzerland). FtsN was used at 2 μM to test its effect on the PBP1b activity.

PBP3 = details: cited from earlier work
Source text: (§1) Bacteria generally have at least one bifunctional (GTase/TPase) PBP of class A and one monofunctional (TPase only) PBP of class B ([2], [13]). E. coli contains three aPBPs: PBP1a, 1b, and 1c, and two bPBPs: PBP2 and PBP3, the latter being involved in cell elongation and division, respectively ([14]). PBP1a and PBP1b are major PG synthases and at least one of them is required for cell viability ([15]).

PBP1b^R141A/R397A = assay type: biochemical, Escherichia coli; details: dansyl-lipid II, continuous fluorescence assay; means ± S.D. of three experiments
Method: The error bars represent the values as means ± S.D. of three experiments.
as §3
activity of the PBP1bWT and PBP1bR141A-R397A was monitored in the presence or the absence of LpoB by
continuous fluorescence assay using dansyl-lipid II (LII) as substrate. The error bars represent the values

[2] = thermal stability of PBP1b^R141A-R397A at 42 °C: GTase activity; assay type: biochemical; details: 1 h at 42 °C versus 30 °C, dansyl-lipid II, mean ± s.d. of three experiments (Fig. S1A)
Method: (§2) Figure S1. Stability of the double mutant PBP1bR141A-R397A at 42°C. (A) The purified protein was incubated at 30°C or 42°C for 1 h and its GTase activity was monitored at the same temperature by continuous fluorescence assay using dansyl -lipid II (LII) as substrate. The error bars represent the values as mean ± s.d. of three experiments. (B) after 1h at 30°C or 42°C the protein ( 7 µg) was labelled with Bocillin FL (50 µM) for 30 min at the same temperature and analyzed by SDS-PAGE followed by fluorescence imaging (right) and Coomassie blue staining (left). 1bWT and 1bRR depict PBP1b wild-type and PBP1b double mutant R141A-R397A, respectively. M, Molecular mass marker. […]

[3] = thermal stability of PBP1b^R141A-R397A at 42 °C: Bocillin binding; details: 1 h at 42 °C versus 30 °C, 7 µg protein, Bocillin FL 50 µM 30 min, SDS-PAGE (Fig. S1B)
Method: as §2

[4] = tested on: E. coli EJ801 (ΔponB-ponA^ts); assay: microscopy of EJ801 cells, cell morphology and length; assay type: cell-based, Escherichia coli; set-up: cell length L: unit not given here
Method: Samples were taken from the complementation cultures (42 °C) at different time (1-h intervals), and the cells were fixed as described ([63]). Photographs were taken with a cooled AxioCam MRm (Zeiss) mounted on a Zeiss Axio Imager. Z1 microscope, and the images were acquired in phase-contrast mode using the AxioVision Rel. 4.5 (Zeiss) software. The cell morphologies analysis were determined using ImageJ software (RRID:SCR_003070) running under plugin ObjectJ (RRID:SCR_019190).

[5] = tested on: E. coli EJ801 (ΔponB-ponA^ts); assay: complementation assay of E. coli EJ801 (ΔponB-ponA^ts); assay type: cell-based, Escherichia coli; details: 42 °C, 4 h, plasmids carrying ponB or mutants, LB 10 g/liter or low salt 0.5 g/liter comparable
Method: To test the activity of the PBP1b mutants in vivo, we tested their ability to complement E. coli strain EJ801, which lacks PBP1b and has a thermosensitive PBP1a ([33]). EJ801 cells were transformed with the corresponding plasmids and grown in LB at 30 °C with 50 µg/ml kanamycin. The preculture was then diluted in 30 ml of fresh LB ([…] NaCl) or LB with […] NaCl medium to an A600nm value of 0.04 and grown at 30 °C until A600nm = 0.1–0.3, and the absorbance of the culture was monitored for 4 h at 42 °C.

E. coli = details: residue change W83L; cited from earlier work
PBP1b [6] = molecular target: T1, PBP1b; details: compared with the WT protein; cited from earlier work
Source text: The stimulation of PBP1b in vitro by FtsN is well-established ([5], [28]).

PBP1b [7] = molecular target: T1, PBP1b; details: cited from earlier work
Source text: as §1

B1: FtsN: full-length E. coli cell division protein FtsN (protein)
chain: MAQRDYVRRSQPAPSRRKKSTSRKKQRNLPAVSPAMVAIAAAVLVTFIGGLYFITHHKKEESETLQSQKVTGNGLPPKPEERWRYIKELESRQPGVRAPTEPSAGGEVKTPEQLTPEQRQLLEQMQADMRQQPTQLVEVPWNEQTPEQRQQTLQRQRQAQQLAEQQRLAQQSRTTEQSWQQQTRTSQAAPVQAQPRQSKPASSQQPYQDLLQTPAHTTAQSKPQQAAPVARAADAPKPTAEKKDERRWMVQCGSFRGAEQAETVRAQLAFEGFDSKITTNNGWNRVVIGPVKGKENADSTLNRLKMAGHTNCIRLAAGG
modifications: left off: His, end not stated, kept
interaction with FtsBLQ (literature) (FtsBLQ): absence of strong interaction
concentration required for stimulation of the GTase activity of PBP1b (PBP1b [1]): ~1 µM
effect on TPase activity of PBP1b (S2d hydrolysis) (TPase domain of PBP1b): no effect
effect on the activity of PBP3 (literature) (PBP3): no effect on the activity of PBP3

B2: PBP1b^R141A/R397A (protein)
chain: MAGNDREPIGRKGKPTRPVKQKVSRRRYEDDDDYDDYDDYEDEEPMPRKGKGKGKGRKPRGKRGWLWLLLKLAIVFAVLIAIYGVYLDQKIRSRIDGKVWQLPAAVYGRMVNLEPDMTISKNEMVKLLEATQYRQVSKMTAPGEFTVQANSIEMIRRPFDFPDSKEGQVRARLTFDGDHLATIVNMENNRQFGFFRLDPRLITMISSPNGEQRLFVPRSGFPDLLVDTLLATEDRHFYEHDGISLYSIGRAVLANLTAGRTVQGASTLTQQLVKNLFLSSERSYWRKANEAYMALIMDARYSKDRILELYMNEVYLGQSGDNEIRGFPLASLYYFGRPVEELSLDQQALLVGMVKGASIYNPWRNPKLALERRNLVLRLLQQQQIIDQELYDMLSAAPLGVQPRGGVISPQPAFMQLVRQELQAKLGDKVKDLSGVKIFTTFDSVAQDAAEKAAVEGIPALKKQRKLSDLETAIVVVDRFSGEVRAMVGGSEPQFAGYNRAMQARRSIGSLAKPATYLTALSQPKIYRLNTWIADAPIALRQPNGQVWSPQNDDRRYSESGRVMLVDALTRSMNVPTVNLGMALGLPAVTETWIKLGVPKDQLHPVPAMLLGALNLTPIEVAQAFQTIASGGNRAPLSALRSVIAEDGKVLYQSFPQAERAVPAQAAYLTLWTMQQVVQRGTGRQLGAKYPNLHLAGKTGTTNNNVDTWFAGIDGSTVTITWVGRDNNQPTKLYGASGAMSIYQRYLANQTPTPLNLVPPEDIADMGVDYDGNFVCSGGMRILPVWTSDPQSLCQQSEMQQQPSGNPFDQSSQPQQQPQQQPAQQEQKDSDGVAGWIKDMFGSN
GTase activity of mutant compared with WT protein (PBP1b^R141A/R397A): minor or no difference in the GTase activity compared with the WT protein
GTase activity after incubation at 42 °C [2]: not affected
Bocillin-binding activity after incubation at 42 °C [3]: not affected
cell length L ([4]; EJ801 after 1 h at 42 °C, n = 250, phase contrast, ImageJ/ObjectJ): 6.14 ± 1.84
cell phenotype ([4]; EJ801 at 42 °C (double mutant: after 1 h)): mild elongated phenotype
restoration of growth of EJ801 at the nonpermissive temperature [5]: unable to rescue E. coli EJ801 at 42 °C

B3: FtsN^W83L (protein, UniProt P29131 1-319, looked up, variant W83L)
Cell division protein FtsN: MAQRDYVRRSQPAPSRRKKSTSRKKQRNLPAVSPAMVAIAAAVLVTFIGGLYFITHHKKEESETLQSQKVTGNGLPPKPEERLRYIKELESRQPGVRAPTEPSAGGEVKTPEQLTPEQRQLLEQMQADMRQQPTQLVEVPWNEQTPEQRQQTLQRQRQAQQLAEQQRLAQQSRTTEQSWQQQTRTSQAAPVQAQPRQSKPASSQQPYQDLLQTPAHTTAQSKPQQAAPVARAADAPKPTAEKKDERRWMVQCGSFRGAEQAETVRAQLAFEGFDSKITTNNGWNRVVIGPVKGKENADSTLNRLKMAGHTNCIRLAAGG
FtsN activity in vivo (literature) (E. coli): impairs FtsN activity in vivo
interaction with PBP1b (literature) (PBP1b [6]): reduced compared with the WT protein
stimulation of PBP1b activity in vitro (literature) (PBP1b [7]): less able to stimulate PBP1b activity
suppression of FtsBLQ-mediated inhibition of PBP1b GTase activity (literature) (PBP1b [7]): less able to stimulate PBP1b activity and to suppress FtsBLQ-mediated inhibition of PBP1b GTase activity in vitro
